According to US20180086837A1 (Ablynx, published 2018):
Several values for one entry are separate records, joined by “and”; a condition that tells them apart may be missing. Equal values may be shown once.

Columns and labels:
[1] = target: T1, human CD4 expressed on cells (human, UniProt P01730 26-458); assay: cell-based or functional assay
[2] = target: T1, human CD4 expressed on cells; assay: cell-based or functional assay; remark: listed apart in the source
[3] = target: T1, human CD4 expressed on cells; assay: flow cytometry, THP-1 cells, anti-flag detection
[4] = target: T1, human CD4 expressed on cells; assay: cell-based or functional assay; remark: listed apart in the source
[5] = target: T1, human CD4 expressed on cells; assay: flow cytometry, MOLM-13 cells (CXCR4+/CD4+)
[6] = target: T1, human CD4 expressed on cells; assay: cell-based or functional assay; remark: listed apart in the source
[7] = target: T1, human CD4 expressed on cells; assay: cell-based or functional assay; remark: listed apart in the source
human CXCR4 [8] = target: T2, human CXCR4 (human, UniProt P61073 1-352); assay: ELISA on coated hCXCR4 lipoparticles versus null lipoparticles, anti-c-myc + anti-mouse-HRP
T2 construct: also called hCXCR4

[9] = target: T1, human CD4 expressed on cells; assay: cell-based or functional assay; remark: listed apart in the source
[10] = target: T1, human CD4 expressed on cells; assay: flow cytometry, Jurkat E6-1 cells (CXCR4+/CD4low); Jurkat E6-1 cells (CXCR4+/CD4low), average of 3 experiments
[11] = target: T1, human CD4 expressed on cells; assay: flow cytometry, MOLM-13 cells, anti-flag detection
[12] = target: T1, human CD4 expressed on cells; assay: flow cytometry, Jurkat cells
[13] = target: T1, human CD4 expressed on cells; assay: flow cytometry, primary human T cells, anti-flag detection
[14] = target: T1, human CD4 expressed on cells; assay: cell-based or functional assay; remark: listed apart in the source
[15] = target: T1, human CD4 expressed on cells; assay: flow cytometry, THP-1 cells
[16] = target: T1, human CD4 expressed on cells; assay: cell-based or functional assay; remark: listed apart in the source
cynomolgus CD4 = target: T3, cynomolgus CD4 (cynomolgus, UniProt P79185 26-458); assay: flow cytometry on the cynomolgus CD4+ T cell line HSC-F, anti-Flag + goat anti-mouse-PE
T3 construct: whole, on cells; also called cyno CD4

human CXCR4 [17] = target: T2, human CXCR4; assay: cell-based or functional assay
human CXCR4 [18] = target: T2, human CXCR4; assay: cell-based or functional assay; remark: listed apart in the source
human CXCR4 [19] = target: T2, human CXCR4; assay: inhibition of 12G5 (competitor, 10 nM PE-labelled) binding, THP-1 cells
human CXCR4 [20] = target: T2, human CXCR4; assay: cell-based or functional assay; remark: listed apart in the source
human CXCR4 [21] = target: T2, human CXCR4; assay: cell-based or functional assay; remark: listed apart in the source
human CXCR4 [22] = target: T2, human CXCR4; assay: flow cytometry, THP-1 cells (double-positive)
human CXCR4 [23] = target: T2, human CXCR4; assay: cell-based or functional assay; remark: listed apart in the source
human CXCR4 [24] = target: T2, human CXCR4; assay: flow cytometry, MOLM-13 cells (CXCR4+/CD4+)
human CXCR4 [25] = target: T2, human CXCR4; assay: cell-based or functional assay; remark: listed apart in the source
human CXCR4 [26] = target: T2, human CXCR4; assay: cell-based or functional assay; remark: listed apart in the source
human CXCR4 [27] = target: T2, human CXCR4; assay: flow cytometry, Jurkat E6-1 cells (CXCR4+/CD4low)
human CXCR4 [28] = target: T2, human CXCR4; assay: SDF-1^AF647 displacement, SUPT-1 cells, flow cytometry, n = 3
human CXCR4 [29] = target: T2, human CXCR4; assay: cell-based or functional assay; remark: listed apart in the source
human CXCR4 [30] = target: T2, human CXCR4; assay: [125I]-SDF-1 displacement, HEK293-CXCR4 membrane extracts
human CXCR4 [31] = target: T2, human CXCR4; assay: cell-based or functional assay; remark: listed apart in the source
human CXCR4 [32] = target: T2, human CXCR4; assay: inhibition of 12G5 (competitor, 10 nM PE-labelled) binding, SUPT-1 cells
human CXCR4 [33] = target: T2, human CXCR4; assay: [125I]-SDF-1 displacement, HEK293-CXCR4 membrane extracts, n = 3
human CXCR4 [34] = target: T2, human CXCR4; assay: cell-based or functional assay; remark: listed apart in the source
human CXCR4 [35] = target: T2, human CXCR4; assay: competition with 12G5 (competitor, 1 nM), Jurkat cells, flow cytometry
human CXCR4 [36] = target: T2, human CXCR4; assay: inhibition of 12G5 (competitor, 10 nM PE-labelled) binding, Jurkat cells

T2 sequence (P61073 whole entry): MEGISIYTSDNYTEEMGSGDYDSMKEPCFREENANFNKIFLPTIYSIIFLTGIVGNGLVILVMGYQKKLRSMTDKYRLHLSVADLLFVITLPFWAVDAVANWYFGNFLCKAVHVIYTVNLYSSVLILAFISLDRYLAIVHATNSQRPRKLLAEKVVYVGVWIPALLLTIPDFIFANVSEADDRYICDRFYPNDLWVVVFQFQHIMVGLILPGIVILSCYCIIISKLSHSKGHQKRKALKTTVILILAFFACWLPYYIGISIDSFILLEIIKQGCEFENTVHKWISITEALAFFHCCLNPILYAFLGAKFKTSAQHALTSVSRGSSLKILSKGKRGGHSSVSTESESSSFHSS
T3 sequence (P79185 26-458): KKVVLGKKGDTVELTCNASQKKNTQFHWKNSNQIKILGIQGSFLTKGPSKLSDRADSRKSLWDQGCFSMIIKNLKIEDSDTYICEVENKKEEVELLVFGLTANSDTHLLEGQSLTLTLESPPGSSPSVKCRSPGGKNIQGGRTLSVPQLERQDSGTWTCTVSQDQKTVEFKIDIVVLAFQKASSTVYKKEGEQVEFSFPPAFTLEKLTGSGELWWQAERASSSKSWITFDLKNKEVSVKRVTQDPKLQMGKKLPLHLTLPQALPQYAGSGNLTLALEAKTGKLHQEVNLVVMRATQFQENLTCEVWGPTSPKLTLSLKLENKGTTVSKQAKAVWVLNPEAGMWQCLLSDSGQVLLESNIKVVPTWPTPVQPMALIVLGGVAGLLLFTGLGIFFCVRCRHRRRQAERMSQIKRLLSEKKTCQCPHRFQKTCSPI

B1: Nanobody 03F11 (VHH)
VHH: EVQLVESGGGSVQPGGSLTLSCGTSGRTFNVMGWFRQAPGKEREFVAAVRWSSTGIYYTQYADSVKSRFTISRDNAKNTVYLEMNSLKPEDTAVYYCAADTYNSNPARWDGYDFRGQGTQVTVSS
notes: Monovalent anti-human CD4 Nanobody; also called CD4 3F11; anti-CD4 Nanobody 3F11; not shown: C-terminal myc-His6 tag (E. coli) or FLAG3-His6 tag (Pichia)
IC50, MT-4 + NL4.3 (X4) [1]: 35.3 nM | IC50, PBMC + BaL (R5) [1]: 610 nM | IC50, PBMC + NL4.3 (X4) [1]: 580 nM | IC50, U87 + NL4.3 (X4) [1]: > 1330 nM | IC50, HIV1 infectivity, X4 NL4.3 in MT-4 cells [2]: 60.7 nM | EC50 [3]: 1 nM | IC50, X4 HIV-1 NL4.3 replication in MT-4 cells [4]: 0.52 µg/mL | EC50 [5]: 0.7 nM | IC50, syncytia formation, SupT1 + HUT-78/IIIb [6]: 4600 nM | IC50, syncytia formation, SupT1 + HUT-78/NL4.3 [6]: 2800 nM | IC50, TZM-bl, DJ259 (R5) [7]: 169 nM | IC50, TZM-bl, NL4.3 3F11 res [7]: > 6700 nM | IC50, TZM-bl, NL4.3 281F12 res [7]: > 6700 nM | IC50, TZM-bl, NL4.3 WT (X4) [7]: 131 nM | IC50, TZM-bl, SM145 (R5) [7]: 8.33 nM | binding result (human CXCR4 [8]): no binding (tested: 100 nM) | IC50, MT-4, HE (R5/X4) [9]: 10 nM | IC50, MT-4, HIV-2 ROD (R5/X4) [9]: 22.7 nM | IC50, MT-4, NL4.3 (X4) [9]: 34.7 nM | IC50, PBMC, BaL (R5) [9]: 610 nM | IC50, PBMC, DJ259 (R5) [9]: 31 nM | IC50, PBMC, HE (R5/X4) [9]: > 1700 nM | IC50, PBMC, NL4.3 (X4) [9]: 500 nM | IC50, PBMC, SM145 (R5) [9]: 27 nM | EC50 [10]: 1.4 nM | EC50 [11]: 0.6 nM | EC50 [12]: 1.1 nM | EC50 [13]: 0.76 nM | IC50, MT-4, NL4.3 2G12 res. [14]: 23.3 nM | IC50, MT-4, NL4.3 3F11 res. [14]: > 6700 nM | IC50, MT-4, NL4.3 281F12 res. [14]: > 6700 nM | IC50, MT-4, NL4.3 AMD-3100 res. [14]: 22.7 nM | IC50, MT-4, NL4.3 CXCL-12 res. [14]: 153 nM | IC50, MT-4, NL4.3 wt [14]: 34.7 nM | IC50, PBMC, NL4.3 3F11 res. [14]: > 6700 nM | IC50, PBMC, NL4.3 281F12 res. [14]: > 6700 nM | IC50, PBMC, NL4.3 WT [14]: 500 nM | EC50 [15]: 0.5 nM | IC50, HIV-1 neutralization, MT-4 + NL4.3 [16]: 34.7 nM | binding result (cynomolgus CD4): binds

B2: Nanobody 281F12 (VHH)
VHH: EVQLVESGGGLVQAGDSLRLSCAASGRAFSRYAMGWFRQAPGKEREFVAAIGWGPSKTNYADSVKGRFTISRDNAKNTVYLQMNTLKPEDTAVYSCAAKFVNTDSTWSRSEMYTYWGQGTQVTVSS
notes: also called CXCR4 281F12; anti-CXCR4 Nanobody 281F12; not shown: C-terminal c-myc-His6 tag (E. coli) or FLAG3-His6 tag (Pichia)
IC50, MT-4 + NL4.3 (X4) (human CXCR4 [17]): 22.9 nM | IC50, PBMC + BaL (R5) (human CXCR4 [17]): > 1670 nM | IC50, PBMC + NL4.3 (X4) (human CXCR4 [17]): 27.7 nM | IC50, U87 + NL4.3 (X4) (human CXCR4 [17]): > 6670 nM | IC50, HIV1 infectivity, X4 NL4.3 in MT-4 cells (human CXCR4 [18]): 59.4 nM | IC50 (human CXCR4 [19]): 49.3 nM | IC50, dual-tropic R5/X4 HIV-1 HE in PBMCs (human CXCR4 [20]): 267 nM | average IC50, HIV-1 NL4.3 replication in MT-4 cells (human CXCR4 [20]): 0.34 µg/mL | IC50, HIV-1 CM237 (clade B) infectivity in PBMC (human CXCR4 [21]): 16 nM | IC50, HIV-1 NL4.3 (X4) infectivity in PBMC (human CXCR4 [21]): 14 nM | IC50, HIV-1 UG270 (clade D) infectivity in PBMC (human CXCR4 [21]): 12 nM | IC90, HIV-1 CM237 (clade B) infectivity in PBMC (human CXCR4 [21]): 49 nM | IC90, HIV-1 NL4.3 (X4) infectivity in PBMC (human CXCR4 [21]): 57 nM | IC90, HIV-1 UG270 (clade D) infectivity in PBMC (human CXCR4 [21]): 2.4 nM | EC50 (human CXCR4 [22]): 3.1 nM | IC50, SDF-1 induced Ca2+ signaling, U87-CD4-CXCR4 cells (human CXCR4 [23]): 66.7 nM | EC50 (human CXCR4 [24]): 5.2 nM | IC50, syncytia formation, SupT1 + HUT-78/IIIb (human CXCR4 [25]): 1800 nM | IC50, syncytia formation, SupT1 + HUT-78/NL4.3 (human CXCR4 [25]): 3600 nM | IC50, TZM-bl, DJ259 (R5) (human CXCR4 [26]): > 6700 nM | IC50, TZM-bl, NL4.3 3F11 res (human CXCR4 [26]): 45.6 nM | IC50, TZM-bl, NL4.3 281F12 res (human CXCR4 [26]): 366 nM | IC50, TZM-bl, NL4.3 WT (X4) (human CXCR4 [26]): 23.5 nM | IC50, TZM-bl, SM145 (R5) (human CXCR4 [26]): > 6700 nM | EC50 (human CXCR4 [27]): 7 nM | IC50 (human CXCR4 [28]): 6.3 nM | IC50, MT-4, HE (R5/X4) (human CXCR4 [29]): 10 nM | IC50, MT-4, HIV-2 ROD (R5/X4) (human CXCR4 [29]): 86.7 nM | IC50, MT-4, NL4.3 (X4) (human CXCR4 [29]): 22.7 nM | IC50, PBMC, BaL (R5) (human CXCR4 [29]): > 1700 nM | IC50, PBMC, DJ259 (R5) (human CXCR4 [29]): > 1700 nM | IC50, PBMC, HE (R5/X4) (human CXCR4 [29]): 350 nM | IC50, PBMC, NL4.3 (X4) (human CXCR4 [29]): 47 nM | Ki (human CXCR4 [30]): 27 nM and 26 nM | IC50, inhibition of SDF-1a-mediated chemotaxis, Jurkat E6-1 cells (human CXCR4 [31]): 84.2 nM | IC50, inhibition of SDF-1a-mediated chemotaxis, MOLM-13 cells (human CXCR4 [31]): 86 nM | IC50 (human CXCR4 [32]): 51.3 nM | pKi (human CXCR4 [33]): 7.57 | IC50, MT-4, NL4.3 2G12 res. (human CXCR4 [34]): 17.3 nM | IC50, MT-4, NL4.3 3F11 res. (human CXCR4 [34]): 87.3 nM | IC50, MT-4, NL4.3 281F12 res. (human CXCR4 [34]): 2330 nM | IC50, MT-4, NL4.3 AMD-3100 res. (human CXCR4 [34]): > 1700 nM | IC50, MT-4, NL4.3 CXCL-12 res. (human CXCR4 [34]): 220 nM | IC50, MT-4, NL4.3 wt (human CXCR4 [34]): 22.7 nM | IC50, PBMC, NL4.3 3F11 res. (human CXCR4 [34]): 120 nM | IC50, PBMC, NL4.3 281F12 res. (human CXCR4 [34]): 310 nM | IC50, PBMC, NL4.3 WT (human CXCR4 [34]): 28 nM | IC50 (human CXCR4 [35]): 13 nM | IC50 (human CXCR4 [36]): 13.7 nM
